Experimental data reported in the nanobody polyreactivity screen of Harvey et al. (2022).

Assay: yeast display, Sf9 membrane polyspecificity reagent, FACS + sequencing; frameworks hold sequencing errors
Summary of the method: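 Synthetic nanobody libraries on Saccharomyces cerevisiae BJ5465 were galactose-induced for 36–48 hours, stained 1 hour at 4 °C with 10% biotinylated, detergent-solubilized Sf9 membrane reagent and enriched on streptavidin microbeads. FACS then separated cells into low and high (top ~1%) gates by anti-HA (expression) and streptavidin (reagent binding) fluorescence. Genes were colony-PCR amplified, MiSeq 2 × 250 sequenced and CDR-length filtered. A clone's polyreactivity label is that of its gate of origin.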

QVQLVESGGGLVQAGGSLRLSCAASGSTFTGNAMGWYRQAPGKERELVAAISRSGGRTYYADSVKGRFTISRDNAKNTVYLQMNILKPEDTGVYYCNAVRNRGQRTAFDYWGQGTQVTVSS
polyreactivity (PSR sort gate): high polyreactivity

QVQLVESGGGLVQAGGSLRLSCAASGSTFTGNAMGWYRQAPGKERELVASINGSSGSTYYADSVKGRFTISRDNAKNTVYLQMNSLKPEDTAVYYGAKDSFLHFPRVGWVGLEYWGQGTQVTVSS
polyreactivity (PSR sort gate): low polyreactivity

QVQLVESGGGLVQAGGSLRLSCAASGSTFTGYALGWYRQAPGKERELVAAISSGGSTYYADSVKGRFTISRDNAKNTVYLQMNSLKPEDTAVYYCAAAPRWKASRLYYWGQGTQVTVSS
polyreactivity (PSR sort gate): high polyreactivity

QVQLVESGGGLVQAGGSLRLSCAASGSTFTGYAMGWYRQAPGKERELVAGISVTGGNTYYADSVKGRFTISRDNAKKTVYLQMNSLKPEDTAVYYCNAVVLSYYAGEMDYWGQGTQVTVSS
polyreactivity (PSR sort gate): low polyreactivity

QVQLVESGGGLVQAGGSLRLSCAASGSTFTHYAMGWYRQAPGKERELVAAISSRGGSTYADSVKGRFTISRDNAKNTVYLQMNSLKPEDTAVYYCAARYRLYYYFRFDWGQGTQVTVSS
polyreactivity (PSR sort gate): high polyreactivity

QVQLVESGGGLVQAGGSLRLSCAASGSTFTIYAMGWYRQAPGTERELVATIRAGGGRTSYADSVKGRFTISRDNAKNTVYLQMNSLKPEETAVYYCAVYVRPTRYGYWGQGTQVTVSS
polyreactivity (PSR sort gate): high polyreactivity

QVQLVESGGGLVQAGGSLRLSCAASGSTFTIYAYGWYRQAPGKERELVAAITRGGGRTYYADSVKGRFTISRDNAKNTVFLQMNSLKPEVTAVYYCAAYYAHEFDYRGQGTQVTVSS
polyreactivity (PSR sort gate): high polyreactivity

QVQLVESGGGLVQAGGSLRLSCAASGSTFTKYAMGWYRQAPGQERELVAAITASGGNTYYADSVKGRFTISRDNAKNTVYLQMNSLKPEDTAVYSCAAVTGLFYHPFYKYNYWGQGTQVTVSS
polyreactivity (PSR sort gate): high polyreactivity

QVQLVESGGGLVQAGGSLRLSCAASGSTFTKYDMGWYRQAPGKERELVAAIRSGGDTNYADSVKGRFTISRDNAKNTVYLQMNSLKPEDTAVYYCAATVLGDYEYWGQGTQVTVSS
polyreactivity (PSR sort gate): low polyreactivity

QVQLVESGGGLVQAGGSLRLSCAASGSTFTKYTMGWYRQAPGKERELVAAITSSGGSTYYADSVKGRFTISRDNAKNTVYLQMNSLKPEDTAVFYCAAPALYYYYYYGYDYWGQGTQVTVSS
polyreactivity (PSR sort gate): high polyreactivity

QVQLVESGGGLVQAGGSLRLSCAASGSTFTLNAMGWYRQAPGKERELVADISWSSGRTYYADSVKGRFTISRDNAKNTVYLQMNSLKPEDTAVYYCATYDFWNVKFYAYYPEFDYWGQGTQVTVSS
polyreactivity (PSR sort gate): low polyreactivity

QVQLVESGGGLVQAGGSLRLSCAASGSTFTLYAMGGYIQAPGKERELVAAITSDDSTYYADSVKGRFTISRDNAKNTVYLQMNSLKPEDTAVYYCAADVYYGDFEMDYWGQGTQVTVSS
polyreactivity (PSR sort gate): low polyreactivity

QVQLVESGGGLVQAGGSLRLSCAASGSTFTLYAMGWYRKAPGKERELVAAISRSGGRTYYADSVKGRFTISRDNAKNTVYLQMNSLKPEDTAVYYCNAPYKQDYDYWGQGTQVTVSS
polyreactivity (PSR sort gate): high polyreactivity

QVQLVESGGGLVQAGGSLRLSCAASGSTFTLYAMGWYRQAPGKERELVAAISGIGDSTYYADSVKGRFTISRDYAKNNVYLQKNSLKPEDTAVYYCAADGEYRYDWEYESWGQGTHVTVSS
polyreactivity (PSR sort gate): low polyreactivity

QVQLVESGGGLVQAGGSLRLSCAASGSTFTLYAMGWYRQAPGKERELVATITGSGGSTNYADSVKGRFTISRDNAKNTVYLQMNSLKPEDTAVYYCAADYAVYSFTDFNYWGQGTQVTVSS
polyreactivity (PSR sort gate): high polyreactivity

QVQLVESGGGLVQAGGSLRLSCAASGSTFTLYAMGWYRQAPGKERELVATITGSGGSTNYADSVKGRFTISRDNAKNTVYLQMNSLKPEDTAVYYCAADYAVYSFTEFNYWGQGSQVTVSS
polyreactivity (PSR sort gate): high polyreactivity

QVQLVESGGGLVQAGGSLRLSCAASGSTFTNYAMGWYRQAPGKERELVAAINNDRTNYADSVKGRFTISRDNAKNTVYLQMNSLKPEDTAVYYCAAQWRVYGYKISRRNYWGQGTQVTVSS
polyreactivity (PSR sort gate): high polyreactivity

QVQLVESGGGLVQAGGSLRLSCAASGSTFTPYAMGWYRQVPGKERELVASITIGGSTYADSVKGRFTISRDNSKNTVYLQMNSLKPEDTAVYYCNADWNWYPFLYSRMDYWGQGTQVTVSS
polyreactivity (PSR sort gate): low polyreactivity

QVQLVESGGGLVQAGGSLRLSCAASGSTFTQNAMGWYRQAPGKERELVAAIDRRGGSTYYADSVKGRFTISRDNAKNTVYLQMNSLKPEDTAVYYCAASFSYNRPKRFTHNYEYWGQGTQVTVSS
polyreactivity (PSR sort gate): low polyreactivity

QVQLVESGGGLVQAGGSLRLSCAASGSTFTRNPLGWYRQAPGKERELVATISRSGGSTYYADSVKGRFTISRDNAKNTVYLQMNSLKPEDTAVYYCARPYQYYKFYSHDYWGQGTQVTVSS
polyreactivity (PSR sort gate): high polyreactivity

QVQLVESGGGLVQAGGSLRLSCAASGSTFTRYAMGWYRQAPGKERELVAAITRSGGGTYYADSVKGRFTISRDNAKNTVYLQMNSLKPEDTAVYYCAKDIVFYGAPGYGYWGQGTQVTVSS
polyreactivity (PSR sort gate): high polyreactivity

QVQLVESGGGLVQAGGSLRLSCAASGSTFTRYAMGWYRQAPGTERECVAGITSIGGRTYYADSVKGRFTISRDNAKNTVYLQMNSLKPEDTAVYYCAKRWGRYYYPYDYWGQGTQVTVSS
polyreactivity (PSR sort gate): high polyreactivity
